T1: tryptophan-free recombinant porcine amelogenin (rP172-W25Y/W45Y/W161Y) (porcine, UniProt P45561 17-189, W25Y | W45Y | W161Y)
T1 construct: all three tryptophans changed to tyrosine; also called rP172-W0; recombinant Amel
T1 sequence (looked up): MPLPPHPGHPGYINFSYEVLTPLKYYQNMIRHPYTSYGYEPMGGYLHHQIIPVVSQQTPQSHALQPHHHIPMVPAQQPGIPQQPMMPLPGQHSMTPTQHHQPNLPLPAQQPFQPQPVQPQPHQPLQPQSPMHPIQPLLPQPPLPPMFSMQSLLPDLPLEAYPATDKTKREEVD

B1: tryptophan-free recombinant porcine amelogenin (rP172-W25Y/W45Y/W161Y) (natural protein)
chain: T1 sequence (looked up)
B2: AB2N, the first 20 amino acids of the AB2 sequence (peptide, UniProt O55189 67-86, looked up)
peptide: YSRLGFGKALNSLWLHGLLP
notes: Mouse ameloblastin (Ambn), the first 20 residues of AB2; residues 3-20 of AB2 are stated to be residues 69-86 of mouse Ambn, so the peptide is 67-86; also called AB2 N-terminus; source: synthetic peptide (Biomer Technologies)
B3: xAB2N, extended AB2 N-terminus (peptide, UniProt O55189 51-86, looked up)
peptide: TMRQLGSLQGLNALSQYSRLGFGKALNSLWLHGLLP
notes: source: synthetic peptide (Biomer Technologies)

Tests used:
[1] = target: spin-labeled xAB2N and AB2 (all residues); test: EPR (continuous-wave, site-directed spin labelling); 15 uM spin-labeled peptide in 50 mM Tris, pH 7.6, 50 mM NaCl; rP172-W0 added to 15 uM, then to 75 uM; all in solution
[2] = target: T1, tryptophan-free recombinant porcine …; test: other fluorescence titration; intrinsic tryptophan fluorescence (excitation 295 nm, peak wavelength); 8 uM tryptophan-containing peptide before and after 40 uM rP172-W0, no LUVs; 10 mM Tris-HCl, 50 mM NaCl, final pH 7.4; details: both partners purified

Row | Binder | difference between inverse central linewidths (1/LW) of EPR spectra with and without Amel [1] [G.^-1] | binding result [2]
1 | B1 | 0.16 to 0.35 | –
2 | B2 | – | binds
3 | B3 | – | binds

From article PMC9966149, “The Dynamic Interactions of a Multitargeting Domain in Ameloblastin Protein with Amelogenin and Membrane” (International Journal of Molecular Sciences, 2023)
